# From publication doi:10.1101/2022.11.19.22282342
# Target: TYROBP transmembrane domain (TMD), bacterial two-hybrid fusion (UniProt O43914)
# Assay: two-hybrid
# UniProt O43914, sequence (O43914 22-113): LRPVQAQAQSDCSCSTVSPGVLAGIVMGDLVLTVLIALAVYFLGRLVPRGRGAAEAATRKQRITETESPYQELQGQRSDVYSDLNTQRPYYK
row,Molecule,"Miller Units (β-galactosidase, B2H) [Miller Units]"
1,"TREM2 transmembrane domain (TMD), bacterial two-hybrid fusion (from UniProt Q9NZC2 19-230) (domain or fragment)",903
2,"PLLVALLLGPKLLLVVGVSAIYIC (domain or fragment) [SIRPβ1 isoform 201 transmembrane domain (TMD), bacterial two-hybrid fusion]",111
3,"PLLIAFLLGPKVLLVVGVSVIYVY (domain or fragment) [SIRPβ1 isoform 202 transmembrane domain (TMD), bacterial two-hybrid fusion]",94
